Assay results: PMC5587847, “IPA1 functions as a downstream transcription factor repressed by D53 in strigolactone signaling in rice” (Cell Research, 2017)

Biological target: T1, HisTrx-D53 (rice (Oryza sativa L.), UniProt Q2RBP2 1-1131)
T1 construct: DWARF 53 (D53), rice; full-length CDS in an E. coli expression vector (pDEST51); also called HisTrx-D53 fusion protein; source: E. coli, purified
T1 sequence (looked up): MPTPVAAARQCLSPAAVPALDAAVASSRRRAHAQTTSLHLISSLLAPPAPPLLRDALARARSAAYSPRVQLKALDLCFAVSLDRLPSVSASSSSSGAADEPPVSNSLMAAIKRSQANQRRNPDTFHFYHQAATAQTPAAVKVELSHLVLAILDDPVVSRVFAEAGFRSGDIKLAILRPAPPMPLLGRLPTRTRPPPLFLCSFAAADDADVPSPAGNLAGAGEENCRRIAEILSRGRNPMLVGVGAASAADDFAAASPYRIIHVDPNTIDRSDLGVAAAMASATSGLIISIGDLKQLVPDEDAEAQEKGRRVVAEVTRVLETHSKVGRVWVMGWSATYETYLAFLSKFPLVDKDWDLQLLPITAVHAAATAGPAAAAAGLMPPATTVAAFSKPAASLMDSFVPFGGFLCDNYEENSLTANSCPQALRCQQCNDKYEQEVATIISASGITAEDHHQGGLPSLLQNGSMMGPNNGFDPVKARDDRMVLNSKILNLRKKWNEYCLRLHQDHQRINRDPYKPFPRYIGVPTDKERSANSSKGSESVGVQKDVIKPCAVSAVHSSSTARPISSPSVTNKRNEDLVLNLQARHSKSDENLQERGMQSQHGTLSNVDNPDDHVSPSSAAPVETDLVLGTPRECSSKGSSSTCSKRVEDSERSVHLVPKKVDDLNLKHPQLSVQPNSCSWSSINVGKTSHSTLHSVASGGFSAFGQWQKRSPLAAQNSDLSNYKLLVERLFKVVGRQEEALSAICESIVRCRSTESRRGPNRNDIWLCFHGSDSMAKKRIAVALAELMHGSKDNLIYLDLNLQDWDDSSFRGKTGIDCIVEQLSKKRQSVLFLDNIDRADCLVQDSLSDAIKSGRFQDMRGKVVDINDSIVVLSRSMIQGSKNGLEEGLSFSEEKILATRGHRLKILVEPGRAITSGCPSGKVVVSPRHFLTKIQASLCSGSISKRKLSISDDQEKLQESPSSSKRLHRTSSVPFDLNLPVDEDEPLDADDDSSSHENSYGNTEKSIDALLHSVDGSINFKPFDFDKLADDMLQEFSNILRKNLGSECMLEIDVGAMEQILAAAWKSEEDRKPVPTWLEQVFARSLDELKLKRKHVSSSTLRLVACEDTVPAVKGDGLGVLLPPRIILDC
Test: pull-down; GST pull-down with HisTrx-D53 and GST-IPA1, both purified from bacteria; D53 detected by anti-D53
Conditions: both partners purified

binding result: binds
B1: GST-IPA1 (natural protein, rice (Oryza sativa L.), UniProt Q7EXZ2 1-417, looked up)
chain: MEMASGGGAAAAAGGGVGGSGGGGGGGDEHRQLHGLKFGKKIYFEDAAAAAGGGGTGSGSGSASAAPPSSSSKAAGGGRGGGGKNKGKGVAAAAPPPPPPPPRCQVEGCGADLSGIKNYYCRHKVCFMHSKAPRVVVAGLEQRFCQQCSRFHLLPEFDQGKRSCRRRLAGHNERRRRPQTPLASRYGRLAASVGEHRRFRSFTLDFSYPRVPSSVRNAWPAIQPGDRISGGIQWHRNVAPHGHSSAVAGYGANTYSGQGSSSSGPPVFAGPNLPPGGCLAGVGAATDSSCALSLLSTQPWDTTTHSAAASHNQAAAMSTTTSFDGNPVAPSAMAGSYMAPSPWTGSRGHEGGGRSVAHQLPHEVSLDEVHPGPSHHAHFSGELELALQGNGPAPAPRIDPGSGSTFDQTSNTMDWSL
notes: Ideal Plant Architecture 1 (IPA1, SPL14), rice; full-length CDS in pGEX-6p-1; source: E. coli (pGEX-6p-1), purified
